Assay results reported in article PMC3592467 (Nucleic Acids Research, 2012).

target: CDC5L–GFP (UniProt Q99459 1-802); assay: affinity purification with mass spectrometry
Sequence (Q99459 whole entry): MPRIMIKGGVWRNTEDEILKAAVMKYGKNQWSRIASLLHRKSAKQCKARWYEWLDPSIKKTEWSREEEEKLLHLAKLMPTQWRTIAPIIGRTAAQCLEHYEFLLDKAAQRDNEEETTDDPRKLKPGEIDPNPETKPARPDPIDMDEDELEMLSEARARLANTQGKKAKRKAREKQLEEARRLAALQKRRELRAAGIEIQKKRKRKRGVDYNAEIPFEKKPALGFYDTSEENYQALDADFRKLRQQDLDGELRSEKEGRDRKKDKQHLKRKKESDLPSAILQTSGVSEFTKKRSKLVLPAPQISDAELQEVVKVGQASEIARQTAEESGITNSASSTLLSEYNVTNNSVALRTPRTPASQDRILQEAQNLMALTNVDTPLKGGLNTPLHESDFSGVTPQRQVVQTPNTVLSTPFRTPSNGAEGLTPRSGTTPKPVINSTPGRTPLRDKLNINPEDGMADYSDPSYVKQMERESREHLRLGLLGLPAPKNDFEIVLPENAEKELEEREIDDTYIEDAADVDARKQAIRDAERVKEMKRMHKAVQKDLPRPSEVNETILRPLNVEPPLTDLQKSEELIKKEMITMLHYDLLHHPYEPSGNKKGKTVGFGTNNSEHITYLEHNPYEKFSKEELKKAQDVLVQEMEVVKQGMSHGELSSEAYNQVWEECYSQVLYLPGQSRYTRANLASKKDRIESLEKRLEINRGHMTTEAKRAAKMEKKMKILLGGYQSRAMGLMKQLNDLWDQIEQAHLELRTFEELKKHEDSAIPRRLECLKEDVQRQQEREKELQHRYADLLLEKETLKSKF

stoichiometry N	stoichiometry with CDC5L as a dimer (CDC5L 2) [per CDC5L dimer]	Binder
0.06 relative to CDC5L	0.12	CTNNBL1 (natural protein) MDVGELLSYQPNRGTKRPRDDEEEEQKMRRKQTGTRERGRYREEEMTVVEEADDDKKRLLQIIDRDGEEEEEEEEPLDESSVKKMILTFEKRSYKNQELRIKFPDNPEKFMESELDLNDIIQEMHVVATMPDLYHLLVELNAVQSLLGLLGHDNTDVSIAVVDLLQELTDIDTLHESEEGAEVLIDALVDGQVVALLVQNLERLDESVKEEADGVHNTLAIVENMAEFRPEMCTEGAQQGLLQWLLKRLKAKMPFDANKLYCSEVLAILLQDNDENRELLGELDGIDVLLQQLSVFKRHNPSTAEEQEMMENLFDSLCSCLMLSSNRERFLKGEGLQLMNLMLREKKISRSSALKVLDHAMIGPEGTDNCHKFVDILGLRTIFPLFMKSPRKIKKVGTTEKEHEEHVCSILASLLRNLRGQQRTRLLNKFTENDSEKVDRLMELHFKYLGAMQVADKKIEGEKHDMVRRGEIIDNDTEEEFYLRRLDAGLFVLQHICYIMAEICNANVPQIRQRVHQILNMRGSSIKIVRHIIKEYAENIGDGRSPEFRENEQKRILGLLENF
0.37 relative to CDC5L	0.72	PLRG1 (natural protein) MVEEVQKHSVHTLVFRSLKRTHDMFVADNGKPVPLDEESHKRKMAIKLRNEYGPVLHMPTSKENLKEKGPQNATDSYVHKQYPANQGQEVEYFVAGTHPYPPGPGVALTADTKIQRMPSESAAQSLAVALPLQTKADANRTAPSGSEYRHPGASDRPQPTAMNSIVMETGNTKNSALMAKKAPTMPKPQWHPPWKLYRVISGHLGWVRCIAVEPGNQWFVTGSADRTIKIWDLASGKLKLSLTGHISTVRGVIVSTRSPYLFSCGEDKQVKCWDLEYNKVIRHYHGHLSAVYGLDLHPTIDVLVTCSRDSTARIWDVRTKASVHTLSGHTNAVATVRCQAAEPQIITGSHDTTIRLWDLVAGKTRVTLTNHKKSVRAVVLHPRHYTFASGSPDNIKQWKFPDGSFIQNLSGHNAIINTLTVNSDGVLVSGADNGTMHLWDWRTGYNFQRVHAAVQPGSLDSESGIFACAFDQSESRLLTAEADKTIKVYREDDTATEETHPVSWKPEIIKRKRF
2.08 relative to CDC5L	4.16	PRP19 (natural protein) MSLICSISNEVPEHPCVSPVSNHVYERRLIEKYIAENGTDPINNQPLSEEQLIDIKVAHPIRPKPPSATSIPAILKALQDEWDAVMLHSFTLRQQLQTTRQELSHALYQHDAACRVIARLTKEVTAAREALATLKPQAGLIVPQAVPSSQPSVVGAGEPMDLGELVGMTPEIIQKLQDKATVLTTERKKRGKTVPEELVKPEELSKYRQVASHVGLHSASIPGILALDLCPSDTNKILTGGADKNVVVFDKSSEQILATLKGHTKKVTSVVFHPSQDLVFSASPDATIRIWSVPNASCVQVVRAHESAVTGLSLHATGDYLLSSSDDQYWAFSDIQTGRVLTKVTDETSGCSLTCAQFHPDGLIFGTGTMDSQIKIWDLKERTNVANFPGHSGPITSIAFSENGYYLATAADDSSVKLWDLRKLKNFKTLQLDNNFEVKSLIFDQSGTYLALGGTDVQIYICKQWTEILHFTEHSGLTTGVAFGHHAKFIASTGMDRSLKFYSL
0.62 relative to CDC5L	1.24	Spf27 (natural protein) MAGTGLVAGEVVVDALPYFDQGYEAPGVREAAAALVEEETRRYRPTKNYLSYLTAPDYSAFETDIMRNEFERLAARQPIELLSMKRYELPAPSSGQKNDITAWQECVNNSMAQLEHQAVRIENLELMSQHGCNAWKVYNENLVHMIEHAQKELQKLRKHIQDLNWQRKNMQLTAGSKLREMESNWVSLVSKNYEIERTIVQLENEIYQIKQQHGEANKENIRQDF
0.36 relative to CDC5L	0.72	AD-002 (natural protein) MTTAARPTFEPARGGRGKGEGDLSQLSKQYSSRDLPSHTKIKYRQTTQDAPEEVRNRDFRRELEERERAAAREKNRDRPTREHTTSSSVSKKPRLDQIPAANLDADDPLTDEEDEDFEEESDDDDTAALLAELEKIKKERAEEQARKEQEQKAEEERIRMENILSGNPLLNLTGPSQPQANFKVKRRWDDDVVFKNCAKGVDDQKKDKRFVNDTLRSEFHKKFMEKYIK

target: EED-GFP (UniProt O75530 1-441); assay: affinity purification with mass spectrometry
Sequence (O75530 whole entry): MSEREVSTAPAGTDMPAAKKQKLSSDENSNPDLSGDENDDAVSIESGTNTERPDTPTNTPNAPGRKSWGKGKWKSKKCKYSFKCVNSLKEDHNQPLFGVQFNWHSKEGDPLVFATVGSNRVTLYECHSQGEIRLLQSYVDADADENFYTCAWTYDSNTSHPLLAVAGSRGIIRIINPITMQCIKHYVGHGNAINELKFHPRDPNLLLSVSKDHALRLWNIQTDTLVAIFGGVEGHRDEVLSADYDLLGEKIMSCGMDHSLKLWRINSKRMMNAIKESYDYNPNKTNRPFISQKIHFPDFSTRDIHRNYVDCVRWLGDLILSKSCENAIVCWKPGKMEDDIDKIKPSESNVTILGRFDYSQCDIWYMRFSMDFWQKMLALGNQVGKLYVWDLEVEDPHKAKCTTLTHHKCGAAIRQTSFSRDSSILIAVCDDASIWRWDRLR

stoichiometry N	Binder
~0.06 relative to the core subunits	C10orf12 (natural protein) MQRMIQQFAAEYTSKNSSTQDPSQPNSTKNQSLPKASPVTTSPTAATTQNPVLSKLLMADQDSPLDLTVRKSQSEPSEQDGVLDLSTKKSPCAGSTSLSHSPGCSSTQGNGENSTEAKAVDSNNQSKSPLEKFMVKLCTHHQKQFIRVLNDLYTESQPGTEDLQPSDSGAMDVSTCNAGCAQLSTKHKEKDALCLDMKSSASVDLFVDSSDSHSPLHLTEQTPKKPPPEINPVDGRENALTVVQKDSSELPTTKSNSINSSSVDSFTPGYLTASNCSSVNFHHIPKILEGQTTGQEQDTNVNICEDGKDHMQSSALVESLITVKMAAENSEEGNTCIIPQRNLFKALSEEAWNSGFMGNSSRTADKENTLQCPKTPLRQDLEANEQDARPKQENHLHSLGRNKVGYHLHPSDKGQFDHSKDGWLGPGPMPAVHKAANGHSRTKMISTSIKTARKSKRASGLRINDYDNQCDVVYISQPITECHFENQKSILSSRKTARKSTRGYFFNGDCCELPTVRTLARNLHSQEKASCSALASEAVFTPKQTLTIPAPRHTVDVQLPREDNPEEPSKEITSHEEGGGDVSPRKEPQEPEVCPTKIKPNLSSSPRSEETTASSLVWPLPAHLPEEDLPEGGSTVSAPTASGMSSPEHNQPPVALLDTEEMSVPQDCHLLPSTESFSGGVSEDVISRPHSPPEIVSREESPQCSENQSSPMGLEPPMSLGKAEDNQSISAEVESGDTQELNVDPLLKESSTFTDENPSETEESEAAGGIGKLEGEDGDVKCLSEKDTYDTSIDSLEENLDKKKKGKKFPEASDRCLRSQLSDSSSADRCLRNQSSDSSSACLEIKVPKNPSAKRSKKEGHPGGTTPKGLLPDSFHTETLEDTEKPSVNERPSEKDAEQEGEGGGIITRQTLKNMLDKEVKELRGEIFPSRDPITTAGQPLPGERLEIYVQSKMDEKNAHIPSESIACKRDPEQAKEEPGHIPTQHVEEAVNEVDNENTQQKDDESDAPCSSLGLSSSGSGDAARAPKSVPRPKRLTSSTYNLRHAHSLGSLDASKVTSEKEAAQVNPIMPKENGASESGDPLDEDDVDTVVDEQPKFMEWCAEEENQELIANFNAQYMKVQKGWIQLEKEGQPTPRARNKSDKLKEIWKSKKRSRKCRSSLESQKCSPVQMLFMTNFKLSNVCKWFLETTETRSLVIVKKLNTRLPGDVPPVKHPLQKYAPSSLYPSSLQAERLKKHLKKFPGATPAKNNWKMQKLWAKFRENPDQVEPEDGSDVSPGPNSEDSIEEVKEDRNSHPPANLPTPASTRILRKYSNIRGKLRAQQRLIKNEKMECPDALAVESKPSRKSVCINPLMSPKLALQVDADGFPVKPKSTEGMKGRKGKQVSEILPKAEVQSKRKRTEGSSPPDSKNKGPTVKASKEKHADGATKTPAAKRPAARDRSSQPPKKTSLKENKVKIPKKSAGKSCPPSRKEKENTNKRPSQSIASETLTKPAKQKGAGESSSRPQKATNRKQSSGKTRARPSTKTPESSAAQRKRKLKAKLDCSHSKRRRLDAK
0.2 relative to EED	AEBP2 (natural protein) MAAAITDMADLEELSRLSPLPPGSPGSAARGRAEPPEEEEEEEEEEEEAEAEAVAALLLNGGSGGGGGGGGGGVGGGEAETMSEPSPESASQAGEDEDEEEDDEEEEDESSSSGGGEEESSAESLVGSSGGSSSDETRSLSPGAASSSSGDGDGKEGLEEPKGPRGSQGGGGGGSSSSSVVSSGGDEGYGTGGGGSSATSGGRRGSLEMSSDGEPLSRMDSEDSISSTIMDVDSTISSGRSTPAMMNGQGSTTSSSKNIAYNCCWDQCQACFNSSPDLADHIRSIHVDGQRGGVFVCLWKGCKVYNTPSTSQSWLQRHMLTHSGDKPFKCVVGGCNASFASQGGLARHVPTHFSQQNSSKVSSQPKAKEESPSKAGMNKRRKLKNKRRRSLPRPHDFFDAQTLDAIRHRAICFNLSAHIESLGKGHSVVFHSTVIAKRKEDSGKIKLLLHWMPEDILPDVWVNESERHQLKTKVVHLSKLPKDTALLLDPNIYRTMPQKRLKRTLIRKVFNLYLSKQ
0.47 relative to EED	C17orf96 (natural protein) METLCPAPRLAVPASPRGSPCSPTPRKPCRGTQEFSPLCLRALAFCALAKPRASSLGPGPGELAARSPVLRGPQAPLRPGGWAPDGLKHLWAPTGRPGVPNTAAGEDADVAACPRRGEEEEGGGGFPHFGVRSCAPPGRCPAPPHPRESTTSFASAPPRPAPGLEPQRGPAASPPQEPSSRPPSPPAGLSTEPAGPGTAPRPFLPGQPAEVDGNPPPAAPEAPAASPSTASPAPAAPGDLRQEHFDRLIRRSKLWCYAKGFALDTPSLRRGPERPPAKGPARGAAKKRRLPAPPPRTAQPRRPAPTLPTTSTFSLLNCFPCPPALVVGEDGDLKPASSLRLQGDSKPPPAHPLWRWQMGGPAVPEPPGLKFWGINMDES
0.12 relative to EED	Jarid2 (natural protein) MSKERPKRNIIQKKYDDSDGIPWSEERVVRKVLYLSLKEFKNSQKRQHAEGIAGSLKTVNGLLGNDQSKGLGPASEQSENEKDDASQVSSTSNDVSSSDFEEGPSRKRPRLQAQRKFAQSQPNSPSTTPVKIVEPLLPPPATQISDLSKRKPKTEDFLTFLCLRGSPALPNSMVYFGSSQDEEEVEEEDDETEDVKTATNNASSSCQSTPRKGKTHKHVHNGHVFNGSSRSTREKEPVQKHKSKEATPAKEKHSDHRADSRREQASANHPAAAPSTGSSAKGLAATHHHPPLHRSAQDLRKQVSKVNGVTRMSSLGAGVTSAKKMREVRPSPSKTVKYTATVTKGAVTYTKAKRELVKDTKPNHHKPSSAVNHTISGKTESSNAKTRKQVLSLGGASKSTGPAVNGLKVSGRLNPKSCTKEVGGRQLREGLQLREGLRNSKRRLEEAHQAEKPQSPPKKMKGAAGPAEGPGKKAPAERGLLNGHVKKEVPERSLERNRPKRATAGKSTPGRQAHGKADSASCENRSTSQPESVHKPQDSGKAEKGGGKAGWAAMDEIPVLRPSAKEFHDPLIYIESVRAQVEKFGMCRVIPPPDWRPECKLNDEMRFVTQIQHIHKLGRRWGPNVQRLACIKKHLKSQGITMDELPLIGGCELDLACFFRLINEMGGMQQVTDLKKWNKLADMLRIPRTAQDRLAKLQEAYCQYLLSYDSLSPEEHRRLEKEVLMEKEILEKRKGPLEGHTENDHHKFHPLPRFEPKNGLIHGVAPRNGFRSKLKEVGQAQLKTGRRRLFAQEKEVVKEEEEDKGVLNDFHKCIYKGRSVSLTTFYRTARNIMSMCFSKEPAPAEIEQEYWRLVEEKDCHVAVHCGKVDTNTHGSGFPVGKSEPFSRHGWNLTVLPNNTGSILRHLGAVPGVTIPWLNIGMVFSTSCWSRDQNHLPYIDYLHTGADCIWYCIPAEEENKLEDVVHTLLQANGTPGLQMLESNVMISPEVLCKEGIKVHRTVQQSGQFVVCFPGSFVSKVCCGYSVSETVHFATTQWTSMGFETAKEMKRRHIAKPFSMEKLLYQIAQAEAKKENGPTLSTISALLDELRDTELRQRRQLFEAGLHSSARYGSHDGSSTVADGKKKPRKWLQLETSERRCQICQHLCYLSMVVQENENVVFCLECALRHVEKQKSCRGLKLMYRYDEEQIISLVNQICGKVSGKNGSIENCLSKPTPKRGPRKRATVDVPPSRLSASSSSKSASSSS
